Assay results as given in patent publication US6410775.
“And” between values parts separate entries of the source, which are not always exact repeats. Identical values can stand only once. Blank lines part the entries; values can stand above or below the binder they belong to. Bridge positions count the residues as written; N and C are the ends. Square brackets hold non-standard residues; d marks the D form. Ends that are not written are not given here. αMeP = C[C@@]1(C(=O)O)CCCN1

How the values were obtained:
[1] = biological target: nine affinity purified ACA antibodies; test: competitive ELISA on CL/β2-GPI plates, peptide monomer 200 µg/mL; average of nine ACA
ACA-6903 aPL antibody [2] = test: competitive ELISA on CL/β2-GPI plates, peptide monomer 200 µg/mL, affinity-purified ACA
ACA-6641 aPL antibody [3] = test: as above
ACA-7005 aPL antibody [4] = test: as above
ACA-6501 aPL antibody [5] = test: as above
ACA-6626 aPL antibody [6] = test: as above
ACA-6638 aPL antibody [7] = test: as above
ACA-6644 aPL antibody [8] = test: as above
ACA-7004 aPL antibody [9] = test: as above
ACA-6701 aPL antibody [10] = test: as above
[11] = biological target: nine affinity purified ACA antibodies; test: competitive ELISA on CL/β2-GPI plates, peptide monomer 1 mg/mL; average of nine ACA
ACA-6903 aPL antibody [12] = test: competitive ELISA on CL/β2-GPI plates, peptide monomer 1 mg/mL, affinity-purified ACA
ACA-6641 aPL antibody [13] = test: as above
ACA-7005 aPL antibody [14] = test: as above
ACA-6501 aPL antibody [15] = test: as above
ACA-6626 aPL antibody [16] = test: as above
ACA-6638 aPL antibody [17] = test: as above
ACA-6644 aPL antibody [18] = test: as above
ACA-7004 aPL antibody [19] = test: as above
ACA-6701 aPL antibody [20] = test: as above
ACA-6501 aPL antibody [21] = test: aPL antibody binding of modified 3B10 peptides
ACA-6501 aPL antibody [22] = test: competitive ELISA on plate-bound tetravalent 3B10, ACA-6501 serum
ACA-6903 aPL antibody [23] = test: competitive ELISA, ACA serum on cardiolipin/β2-GPI-coated plates
ACA-6641 aPL antibody [24] = test: as above
ACA-7005 aPL antibody [25] = test: as above
ACA-6501 aPL antibody [26] = test: as above
ACA-6626 aPL antibody [27] = test: as above
ACA-6638 aPL antibody [28] = test: as above
ACA-7004 aPL antibody [29] = test: as above
ACA-6701 aPL antibody [30] = test: as above
ACA-6635 aPL antibody [31] = test: as above
ACA-6903 aPL antibody [32] = test: competitive ELISA, peptide at 1.8 mg/mL; members from Table 7
ACA-6641 aPL antibody [33] = test: as above
ACA-7005 aPL antibody [34] = test: as above
ACA-6501 aPL antibody [35] = test: as above
ACA-6626 aPL antibody [36] = test: as above
ACA-6638 aPL antibody [37] = test: as above
ACA-6644 aPL antibody [38] = test: as above
ACA-7004 aPL antibody [39] = test: as above
ACA-6701 aPL antibody [40] = test: as above
ACA-6635 aPL antibody [41] = test: as above
ACA-6644 aPL antibody [42] = test: competitive ELISA, ACA serum (printed 664) on cardiolipin/β2-GPI-coated plates
ACA-6501 aPL antibody [43] = test: competitive ELISA I50; antibody not given, ACA-6501 serum on CL/β2-GPI assumed (Ex. 4B)
[44] = biological target: ACA sera [1]-[10] of Table 7; test: competitive ELISA; mean ± sd over the ten ACA sera
ACA-6701 aPL antibody [45] = test: fluorescence polarization
ACA-6701 aPL antibody [46] = test: competitive fluorescence polarization (cFP), displacement of CB2*-F
ACA-6501 aPL antibody [47] = test: competitive ELISA on plate-bound tetravalent 3B10

Binder: AGPCLLLA[αMeP]DRCPG (cysteine pairing not given here) [peptide 727 (3B10 with αMe-Pro at the 9 position)]
fold enhancement in immunoreactivity against 3B10 (ACA-6501 aPL antibody [21]): 6 fold
fold increase in activity against native 3B10 (ACA-6501 aPL antibody [22]): 4 fold

Binder: AGPCLGVLGKLCPG [peptide ACA-6641/3G3 … (LJP 688)]
IC50 (ACA-6903 aPL antibody [23]): 800 µg/mL
IC50 (ACA-6641 aPL antibody [24]): 890 µg/mL and 510 µg/mL
IC50 (ACA-7005 aPL antibody [25]): 750 µg/mL
IC50 (ACA-6501 aPL antibody [26]): 890 µg/mL and 1100 µg/mL
IC50 (ACA-6626 aPL antibody [27]): 1090 µg/mL
IC50 (ACA-6638 aPL antibody [28]): 810 µg/mL
IC50 (ACA-7004 aPL antibody [29]): 670 µg/mL
IC50 (ACA-6701 aPL antibody [30]): 1070 µg/mL
IC50 (ACA-6635 aPL antibody [31]): 1000 µg/mL
percent inhibition (ACA-6903 aPL antibody [32]): > 80%
percent inhibition (ACA-6641 aPL antibody [33]): > 80%
percent inhibition (ACA-7005 aPL antibody [34]): > 80%
percent inhibition (ACA-6501 aPL antibody [35]): 80%
percent inhibition (ACA-6626 aPL antibody [36]): > 80%
percent inhibition (ACA-6638 aPL antibody [37]): > 80%
percent inhibition (ACA-6644 aPL antibody [38]): > 80%
percent inhibition (ACA-7004 aPL antibody [39]): > 80%
percent inhibition (ACA-6701 aPL antibody [40]): > 80%
percent inhibition (ACA-6635 aPL antibody [41]): > 80%
IC50 (ACA-6644 aPL antibody [42]): 760 µg/mL
IC50 (ACA-6501 aPL antibody [43]): 850 µg/mL
IC50 [44]: 860 µg/mL
percent inhibition (Ave.) [11]: 97%
percent inhibition (ACA-6903 aPL antibody [12]): 100%
percent inhibition (ACA-6641 aPL antibody [13]): 93%
percent inhibition (ACA-7005 aPL antibody [14]): 95%
percent inhibition (ACA-6501 aPL antibody [15]): 86%
percent inhibition (ACA-6626 aPL antibody [16]): 100%
percent inhibition (ACA-6638 aPL antibody [17]): 100%
percent inhibition (ACA-6644 aPL antibody [18]): 100%
percent inhibition (ACA-7004 aPL antibody [19]): 100%
percent inhibition (ACA-6701 aPL antibody [20]): 100%

Binder: AGPCLLLAPDRCPG [peptide ACA-6501/3B10 … (monomer)]
fold weaker binding against CB2* (ACA-6701 aPL antibody [45]): 9 fold
Ki (ACA-6701 aPL antibody [46]): 313 nM
percent inhibition (Ave.) [11]: 65%
percent inhibition (ACA-6903 aPL antibody [12]): 69%
percent inhibition (ACA-6641 aPL antibody [13]): 52%
percent inhibition (ACA-7005 aPL antibody [14]): 47%
percent inhibition (ACA-6501 aPL antibody [15]): 60%
percent inhibition (ACA-6626 aPL antibody [16]): 76%
percent inhibition (ACA-6638 aPL antibody [17]): 87%
percent inhibition (ACA-6644 aPL antibody [18]): 55%
percent inhibition (ACA-7004 aPL antibody [19]): 87%
percent inhibition (ACA-6701 aPL antibody [20]): 51%

Binder: GPCILLARDRCG (disulfide 3-11 (inferred)) [CB2* …]
fold improvement in binding against CB2*-F (ACA-6701 aPL antibody [45]): 14 fold
Ki (ACA-6701 aPL antibody [46]): 35 nM

Binder: PCLLLAPDRCPG [peptide 139 (3B10 lacking the framework Ala-Gly at the amino terminus)]
fold increase of the 50% inhibition concentration against peptide 142 (ACA-6501 aPL antibody [47]): 8 fold

Continued, values first:

percent inhibition (Ave.) [1]: 39%
percent inhibition (ACA-6903 aPL antibody [2]): 43%
percent inhibition (ACA-6641 aPL antibody [3]): 28%
percent inhibition (ACA-7005 aPL antibody [4]): 57%
percent inhibition (ACA-6501 aPL antibody [5]): 37%
percent inhibition (ACA-6626 aPL antibody [6]): 37%
percent inhibition (ACA-6638 aPL antibody [7]): 60%
percent inhibition (ACA-6644 aPL antibody [8]): 18%
percent inhibition (ACA-7004 aPL antibody [9]): 54%
percent inhibition (ACA-6701 aPL antibody [10]): 22%
Binder: GILALDYVGG [peptide ACA-6644/CBf …]

percent inhibition (Ave.) [11]: 52%
percent inhibition (ACA-6903 aPL antibody [12]): 51%
percent inhibition (ACA-6641 aPL antibody [13]): 43%
percent inhibition (ACA-7005 aPL antibody [14]): 23%
percent inhibition (ACA-6501 aPL antibody [15]): 41%
percent inhibition (ACA-6626 aPL antibody [16]): 43%
percent inhibition (ACA-6638 aPL antibody [17]): 65%
percent inhibition (ACA-6644 aPL antibody [18]): 37%
percent inhibition (ACA-7004 aPL antibody [19]): 72%
percent inhibition (ACA-6701 aPL antibody [20]): 96%
Binder: AGPLSDPGYVRNIFHPG [peptide ACA-6701/3B1 …]
